Reference: patent US20210388110A1 (published 2021)

B1: CE115HA252-E22Hh//-Hi-Kn010G3/L0000-k0 (antibody, human IgG1, kappa, L234A L235A, N297A)
heavy: QVQLVESGGGVVQPGRSLRLSCAASGFTFSNAWMHWVRQAPGKGLEWVAQIKAKSNNYKKYYAESVKGRFTISRDDSKNSLYLQMNSLKTEDTAVYYCRYVHYYYYYGVDAWGQGTTVTVSSASTKGPSVFPLAPSSKSTSGGTAALGCLVKDYFPEPVTVSWNSGALTSGVHTFPAVLQSSGLYSLSSVVTVPSSSLGTQTYICNVNHKPSNTKVDKKVEPKSCDKTHTCPPCPAPEAAGGPSVFLFPPKPKDTLMISRTPEVTCVVVDVSHEDPEVKFNWYVDGVEVHNAKTKPREEQYASTYRVVSVLTVLHQDWLNGKEYKCKVSNKALPAPIEKTISKAKGQPREPQVYTLPPSRCELTKNQVSLSCAVKGFYPSDIAVEWESNGQPENNYKTTPPVLDSDGSFFLVSKLTVDKSRWQQGNVFSCSVMHEALHNHYTQKSLSLSPDYKDDDDK
chain: EPKSSDKTHTCPPCPAPELLGGPSVFLFPPKPKDTLMISRTPEVTCVVVDVSHEDPEVKFNWYVDGVEVHNAKTKPREEQYNSTYRVVSVLTVLHQDWLNGKEYKCKVSNKALPAPIEKTISKAKGQPREPQVCTLPPSRDELTKNQVSLWCLVKGFYPSDIAVEWESNGQPENNYKTTPPVLDSDGSFFLYSKLTVDKSRWQQGNVFSCSVMHEALHNRYTQKSLSLSP
light: DIVMTQSPLSLPVTPGEPASISCRSSQSLVHSNRNTYLHWYQQKPGQAPRLLIYKVSNRFSGVPDRFSGSGSGTDFTLKISRVEAEDVGVYYCGQGTQVPYTFGQGTKLEIKRTVAAPSVFIFPPSDEQLKSGTASVVCLLNNFYPREAKVQWKVDNALQSGNSQESVTEQDSKDSTYSLSSTLTLSKADYEKHKVYACEVTHQGLSSPVTKSFNRGEC
notes: single-arm
B2: TR01H003-E22Hh//-Hi-Kn010G3/L0000-k0 (antibody, human IgG1, kappa, L234A L235A, N297A)
heavy: QVQLVESGGGVVQPGRSLRLSCAASGFTFSNAWMHWVRQAPGKGLEWVAQIKAKSNNYATYYAESVKGRFTISRDDSKNSLYLQMNSLKTEDTAVYYCRRVHYGAYYGVDAWGQGTTVTVSSASTKGPSVFPLAPSSKSTSGGTAALGCLVKDYFPEPVTVSWNSGALTSGVHTFPAVLQSSGLYSLSSVVTVPSSSLGTQTYICNVNHKPSNTKVDKKVEPKSCDKTHTCPPCPAPEAAGGPSVFLFPPKPKDTLMISRTPEVTCVVVDVSHEDPEVKFNWYVDGVEVHNAKTKPREEQYASTYRVVSVLTVLHQDWLNGKEYKCKVSNKALPAPIEKTISKAKGQPREPQVYTLPPSRCELTKNQVSLSCAVKGFYPSDIAVEWESNGQPENNYKTTPPVLDSDGSFFLVSKLTVDKSRWQQGNVFSCSVMHEALHNHYTQKSLSLSPDYKDDDDK
chain: EPKSSDKTHTCPPCPAPELLGGPSVFLFPPKPKDTLMISRTPEVTCVVVDVSHEDPEVKFNWYVDGVEVHNAKTKPREEQYNSTYRVVSVLTVLHQDWLNGKEYKCKVSNKALPAPIEKTISKAKGQPREPQVCTLPPSRDELTKNQVSLWCLVKGFYPSDIAVEWESNGQPENNYKTTPPVLDSDGSFFLYSKLTVDKSRWQQGNVFSCSVMHEALHNRYTQKSLSLSP
light: DIVMTQSPLSLPVTPGEPASISCRSSQSLVHSNRNTYLHWYQQKPGQAPRLLIYKVSNRFSGVPDRFSGSGSGTDFTLKISRVEAEDVGVYYCGQGTQVPYTFGQGTKLEIKRTVAAPSVFIFPPSDEQLKSGTASVVCLLNNFYPREAKVQWKVDNALQSGNSQESVTEQDSKDSTYSLSSTLTLSKADYEKHKVYACEVTHQGLSSPVTKSFNRGEC
notes: single-arm
B3: TR01H006-E22Hh/none-Hi-Kn010G3/L0000-k0 (antibody, human IgG1, kappa, L234A L235A, N297A)
heavy: QVQLVESGGGLVQPGRSLRLSCAASGFTFSNAWMHWVRQAPGKGLEWVAQIKAKSQNYATYYAESVKGRFTISRADSKNSIYLQMNSLKTEDTAVYYCRYVHYGAYYGVDIWGQGTTVTVSSASTKGPSVFPLAPSSKSTSGGTAALGCLVKDYFPEPVTVSWNSGALTSGVHTFPAVLQSSGLYSLSSVVTVPSSSLGTQTYICNVNHKPSNTKVDKKVEPKSCDKTHTCPPCPAPEAAGGPSVFLFPPKPKDTLMISRTPEVTCVVVDVSHEDPEVKFNWYVDGVEVHNAKTKPREEQYASTYRVVSVLTVLHQDWLNGKEYKCKVSNKALPAPIEKTISKAKGQPREPQVYTLPPSRCELTKNQVSLSCAVKGFYPSDIAVEWESNGQPENNYKTTPPVLDSDGSFFLVSKLTVDKSRWQQGNVFSCSVMHEALHNHYTQKSLSLSPDYKDDDDK
chain: EPKSSDKTHTCPPCPAPELLGGPSVFLFPPKPKDTLMISRTPEVTCVVVDVSHEDPEVKFNWYVDGVEVHNAKTKPREEQYNSTYRVVSVLTVLHQDWLNGKEYKCKVSNKALPAPIEKTISKAKGQPREPQVCTLPPSRDELTKNQVSLWCLVKGFYPSDIAVEWESNGQPENNYKTTPPVLDSDGSFFLYSKLTVDKSRWQQGNVFSCSVMHEALHNRYTQKSLSLSP
light: DIVMTQSPLSLPVTPGEPASISCRSSQSLVHSNRNTYLHWYQQKPGQAPRLLIYKVSNRFSGVPDRFSGSGSGTDFTLKISRVEAEDVGVYYCGQGTQVPYTFGQGTKLEIKRTVAAPSVFIFPPSDEQLKSGTASVVCLLNNFYPREAKVQWKVDNALQSGNSQESVTEQDSKDSTYSLSSTLTLSKADYEKHKVYACEVTHQGLSSPVTKSFNRGEC
notes: single-arm
B4: TR01H007-E22Hh/none-Hi-Kn010G3/L0000-k0 (antibody, human IgG1, kappa, L234A L235A, N297A)
heavy: QVQLVESGGGLVQPGRSLRLSCAASGFTFSNAWMHWVRQAPGKGLEWVAQIKSKSNNYATYYAESVKGRFTISRADSKNSIYLQMNSLKTEDTAVYYCRYVHYGAYYGVDIWGQGTTVTVSSASTKGPSVFPLAPSSKSTSGGTAALGCLVKDYFPEPVTVSWNSGALTSGVHTFPAVLQSSGLYSLSSVVTVPSSSLGTQTYICNVNHKPSNTKVDKKVEPKSCDKTHTCPPCPAPEAAGGPSVFLFPPKPKDTLMISRTPEVTCVVVDVSHEDPEVKFNWYVDGVEVHNAKTKPREEQYASTYRVVSVLTVLHQDWLNGKEYKCKVSNKALPAPIEKTISKAKGQPREPQVYTLPPSRCELTKNQVSLSCAVKGFYPSDIAVEWESNGQPENNYKTTPPVLDSDGSFFLVSKLTVDKSRWQQGNVFSCSVMHEALHNHYTQKSLSLSPDYKDDDDK
chain: EPKSSDKTHTCPPCPAPELLGGPSVFLFPPKPKDTLMISRTPEVTCVVVDVSHEDPEVKFNWYVDGVEVHNAKTKPREEQYNSTYRVVSVLTVLHQDWLNGKEYKCKVSNKALPAPIEKTISKAKGQPREPQVCTLPPSRDELTKNQVSLWCLVKGFYPSDIAVEWESNGQPENNYKTTPPVLDSDGSFFLYSKLTVDKSRWQQGNVFSCSVMHEALHNRYTQKSLSLSP
light: DIVMTQSPLSLPVTPGEPASISCRSSQSLVHSNRNTYLHWYQQKPGQAPRLLIYKVSNRFSGVPDRFSGSGSGTDFTLKISRVEAEDVGVYYCGQGTQVPYTFGQGTKLEIKRTVAAPSVFIFPPSDEQLKSGTASVVCLLNNFYPREAKVQWKVDNALQSGNSQESVTEQDSKDSTYSLSSTLTLSKADYEKHKVYACEVTHQGLSSPVTKSFNRGEC
notes: single-arm
B5: TR01H012-E22Hh/none-Hi-Kn010G3/L0000-k0 (antibody, human IgG1, kappa, L234A L235A, N297A)
heavy: QVQLVESGGGLVQPGRSLRLSCAASGFTFSNAWMHWVRQAPGKGLEWVAQIKAKSNNYATYYAESVKGRFTISRADSKNSIYLQMNSLKTEDTAVYYCRYVHYYYSYGVDIWGQGTTVTVSSASTKGPSVFPLAPSSKSTSGGTAALGCLVKDYFPEPVTVSWNSGALTSGVHTFPAVLQSSGLYSLSSVVTVPSSSLGTQTYICNVNHKPSNTKVDKKVEPKSCDKTHTCPPCPAPEAAGGPSVFLFPPKPKDTLMISRTPEVTCVVVDVSHEDPEVKFNWYVDGVEVHNAKTKPREEQYASTYRVVSVLTVLHQDWLNGKEYKCKVSNKALPAPIEKTISKAKGQPREPQVYTLPPSRCELTKNQVSLSCAVKGFYPSDIAVEWESNGQPENNYKTTPPVLDSDGSFFLVSKLTVDKSRWQQGNVFSCSVMHEALHNHYTQKSLSLSPDYKDDDDK
chain: EPKSSDKTHTCPPCPAPELLGGPSVFLFPPKPKDTLMISRTPEVTCVVVDVSHEDPEVKFNWYVDGVEVHNAKTKPREEQYNSTYRVVSVLTVLHQDWLNGKEYKCKVSNKALPAPIEKTISKAKGQPREPQVCTLPPSRDELTKNQVSLWCLVKGFYPSDIAVEWESNGQPENNYKTTPPVLDSDGSFFLYSKLTVDKSRWQQGNVFSCSVMHEALHNRYTQKSLSLSP
light: DIVMTQSPLSLPVTPGEPASISCRSSQSLVHSNRNTYLHWYQQKPGQAPRLLIYKVSNRFSGVPDRFSGSGSGTDFTLKISRVEAEDVGVYYCGQGTQVPYTFGQGTKLEIKRTVAAPSVFIFPPSDEQLKSGTASVVCLLNNFYPREAKVQWKVDNALQSGNSQESVTEQDSKDSTYSLSSTLTLSKADYEKHKVYACEVTHQGLSSPVTKSFNRGEC
notes: single-arm
B6: TR01H013-E22Hh/none-Hi-Kn010G3/L0000-k0 (antibody, human IgG1, kappa, L234A L235A, N297A)
heavy: QVQLVESGGGLVQPGRSLRLSCAASGFTFSNAWMHWVRQAPGKGLEWVAQIKGKSQNYATYYAESVKGRFTISRADSKNSIYLQMNSLKTEDTAVYYCRYVHYGAYYGVDIWGQGTTVTVSSASTKGPSVFPLAPSSKSTSGGTAALGCLVKDYFPEPVTVSWNSGALTSGVHTFPAVLQSSGLYSLSSVVTVPSSSLGTQTYICNVNHKPSNTKVDKKVEPKSCDKTHTCPPCPAPEAAGGPSVFLFPPKPKDTLMISRTPEVTCVVVDVSHEDPEVKFNWYVDGVEVHNAKTKPREEQYASTYRVVSVLTVLHQDWLNGKEYKCKVSNKALPAPIEKTISKAKGQPREPQVYTLPPSRCELTKNQVSLSCAVKGFYPSDIAVEWESNGQPENNYKTTPPVLDSDGSFFLVSKLTVDKSRWQQGNVFSCSVMHEALHNHYTQKSLSLSPDYKDDDDK
chain: EPKSSDKTHTCPPCPAPELLGGPSVFLFPPKPKDTLMISRTPEVTCVVVDVSHEDPEVKFNWYVDGVEVHNAKTKPREEQYNSTYRVVSVLTVLHQDWLNGKEYKCKVSNKALPAPIEKTISKAKGQPREPQVCTLPPSRDELTKNQVSLWCLVKGFYPSDIAVEWESNGQPENNYKTTPPVLDSDGSFFLYSKLTVDKSRWQQGNVFSCSVMHEALHNRYTQKSLSLSP
light: DIVMTQSPLSLPVTPGEPASISCRSSQSLVHSNRNTYLHWYQQKPGQAPRLLIYKVSNRFSGVPDRFSGSGSGTDFTLKISRVEAEDVGVYYCGQGTQVPYTFGQGTKLEIKRTVAAPSVFIFPPSDEQLKSGTASVVCLLNNFYPREAKVQWKVDNALQSGNSQESVTEQDSKDSTYSLSSTLTLSKADYEKHKVYACEVTHQGLSSPVTKSFNRGEC
notes: single-arm

target: T1, soluble human CD3ε chain (human, UniProt P07766 23-126, limits assumed); test: SPR (Biacore)
T1 construct: the text says soluble human CD3ε chain; also called human CD3 epsilon chain
T1 sequence (P07766 23-126 limits assumed): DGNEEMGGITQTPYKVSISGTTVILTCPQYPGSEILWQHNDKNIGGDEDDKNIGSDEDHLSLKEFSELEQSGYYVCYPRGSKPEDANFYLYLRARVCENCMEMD

In order of falling Kd:
1. B6  0.0494 µM
2. B2  0.0403 µM
3. B3  0.023 µM
4. B4  0.0217 µM
5. B1  0.00948 µM
6. B5  0.00794 µM
